Measured values reported in patent US20240360228A1 (BIOLEGEND, published 2024).

Experiments:
[1] = target: human chemokine (C-C motif) receptor 8 (CCR8) (human, UniProt P51685 1-355); test: cell-based or functional assay
human CCR8 [2] = target: T1, human CCR8 (human, UniProt P51685 1-355); test: flow blocking, PBMC CCR8+CD3+; competitor PE-AB14
T1 construct: Native CCR8 on human PBMC (CCR8+ CD3+ or CCR8+ CD4+ lymphocytes); also called chemokine (C-C motif) receptor 8
Experimental: (§1) For blocking studies, 100 μL of the cell suspension were incubated with 10 μg purified isotype control, AB1, AB2, AB3, AB4, AB5, AB8, AB9, AB10, AB11, AB12, AB13, AB14, AB15, and Commercial ABI antibodies, or isotype control, as blocking agents.
(§2) After incubation with the blocking agent, the cells were incubated with 0.25 μg of the indicated PE-conjugated antibody plus anti-human CD4 APC or anti-human CD3 for another 15 minutes in the dark and then washed 2 times with Cell Staining Buffer, and acquired in a FACSCanto II flow cytometer (BD Biosciences); the data was analyzed using FCS Express (De Novo Software); MFI correspond to the CCR8+ CD4+ lymphocytes or CCR8+ CD3+ lymphocytes.
(§3) Percentage original MFI was calculated by dividing the MFI of samples blocked with AB1, AB2, AB3, AB4, AB5, AB6, AB7, AB8, AB9, AB10, AB11, AB12, AB13, AB14, AB15, and Commercial ABI antibodies, by the MFI of samples blocked with the corresponding isotype control. This value was subtracted from 100 to get a blocking percentage. The formula is shown below: […]

human CCR8 [3] = target: T1, human CCR8; test: flow blocking, PBMC CCR8+CD3+; competitor PE-AB5
Experimental: as §1, §2, §3

human CCR8 [4] = target: T1, human CCR8; test: flow blocking, PBMC CCR8+CD4+; competitor PE-AB2
Procedure, shortened: (§4)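 Read-out: PE MFI of CCR8+ CD4+ or CD3+ lymphocytes by flow cytometry. Cell suspension was first blocked with 10 μg unlabeled antibody or isotype, then given 0.25 μg PE-labelled competitor with anti-CD4/CD3 for 15 min, dark, washed twice. Percent blocking is 100 minus MFI ratio versus isotype.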

human CCR8 [5] = target: T1, human CCR8; test: flow blocking, PBMC CCR8+CD4+; competitor PE-AB12
Procedure, shortened: as §4

human CCR8 [6] = target: T1, human CCR8; test: flow blocking, PBMC CCR8+CD3+; competitor PE-AB12
Experimental: as §1, §2, §3

human CCR8 [7] = target: T1, human CCR8; test: flow blocking, PBMC CCR8+CD3+; competitor PE-AB15
Experimental: as §1, §2, §3

human CCR8 [8] = target: T1, human CCR8; test: flow blocking, PBMC CCR8+CD4+; competitor PE-AB5
Procedure, shortened: as §4

human CCR8 [9] = target: T1, human CCR8; test: flow blocking, PBMC CCR8+CD4+; competitor PE-AB14
Procedure, shortened: (§5)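 Human PBMC (100 μL suspension) were pre-blocked with 10 μg of each unlabelled anti-CCR8 antibody or isotype control. Cells were then stained 15 min in the dark with 0.25 μg of the PE-conjugated competitor antibody plus anti-CD4 or anti-CD3. Read-out by flow cytometry as MFI on CCR8+CD4+ or CCR8+CD3+ lymphocytes.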

human CCR8 [10] = target: T1, human CCR8; test: flow blocking, PBMC CCR8+CD4+; competitor PE-AB13
Procedure, shortened: as §5

human CCR8 [11] = target: T1, human CCR8; test: flow blocking, PBMC CCR8+CD3+; competitor PE-AB10
Experimental: as §1, §2, §3

human CCR8 [12] = target: T1, human CCR8; test: flow blocking, PBMC CCR8+CD4+; competitor PE-AB11
Procedure, shortened: as §4

human CCR8 [13] = target: T1, human CCR8; test: flow blocking, PBMC CCR8+CD3+; competitor PE-AB13
Experimental: as §1, §2, §3

human CCR8 [14] = target: T1, human CCR8; test: flow blocking, PBMC CCR8+CD3+; competitor PE-AB8
Experimental: as §1, §2, §3

human CCR8 [15] = target: T1, human CCR8; test: flow blocking, PBMC CCR8+CD3+; competitor PE-AB6
Experimental: as §1, §2, §3

human CCR8 [16] = target: T1, human CCR8; test: flow blocking, PBMC CCR8+CD4+; competitor PE-AB10
Procedure, shortened: as §4

human CCR8 [17] = target: T1, human CCR8; test: flow blocking, PBMC CCR8+CD4+; competitor PE-AB4
Procedure, shortened: as §4

human CCR8 [18] = target: T1, human CCR8; test: flow blocking, PBMC CCR8+CD3+; competitor PE-L263G8
Experimental: as §1, §2, §3

human CCR8 [19] = target: T1, human CCR8; test: flow blocking, PBMC CCR8+CD3+; competitor PE-AB7
Experimental: as §1, §2, §3

human CCR8 [20] = target: T1, human CCR8; test: flow blocking, PBMC CCR8+CD4+; competitor PE-AB6
human CCR8 [21] = target: T1, human CCR8; test: flow blocking, PBMC CCR8+CD3+; competitor PE-433H
Experimental: as §1, §2, §3

human CCR8 [22] = target: T1, human CCR8; test: flow blocking, PBMC CCR8+CD4+; competitor PE-AB1
Procedure, shortened: as §4

human CCR8 [23] = target: T1, human CCR8; test: flow blocking, PBMC CCR8+CD4+; competitor PE-AB3
Procedure, shortened: as §4

human CCR8 [24] = target: T1, human CCR8; test: flow blocking, PBMC CCR8+CD4+; competitor PE-433H
Procedure, shortened: as §5

human CCR8 [25] = target: T1, human CCR8; test: flow blocking, PBMC CCR8+CD3+; competitor PE-AB11
Experimental: as §1, §2, §3

human CCR8 [26] = target: T1, human CCR8; test: flow blocking, PBMC CCR8+CD4+; competitor PE-AB15
Procedure, shortened: as §4

T1 sequence (P51685 whole entry): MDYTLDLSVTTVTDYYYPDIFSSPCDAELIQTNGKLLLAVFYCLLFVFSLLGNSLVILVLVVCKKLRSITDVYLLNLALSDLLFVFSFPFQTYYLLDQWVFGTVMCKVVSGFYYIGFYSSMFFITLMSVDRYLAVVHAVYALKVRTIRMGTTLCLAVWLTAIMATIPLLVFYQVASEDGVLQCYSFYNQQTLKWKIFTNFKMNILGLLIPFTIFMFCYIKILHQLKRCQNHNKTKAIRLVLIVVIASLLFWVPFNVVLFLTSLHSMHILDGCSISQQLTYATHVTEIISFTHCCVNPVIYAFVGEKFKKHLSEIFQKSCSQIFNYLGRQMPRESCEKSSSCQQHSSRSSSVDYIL
human chemokine (C-C motif) receptor 8 (CCR8), sequence (P51685 whole entry): as above

B1: AB7 (antibody, V domains shown)
VH: AVQLVESGGGLVQPKESLKISCAASGFTFSYAAMYWVRQTPGKGLEWVARIRTKPNNYATYYADSVKGRFTISRDDSKSMVYLQMDNLKSEDTAMYYCNIMGITRGYYFDYWGQGVMVTVSS
VL: DIQMTQSPSFLSASVGDRVTINCKASQNINRYLNWYQQQLGEAPKLLIYNANNLQTGIPSRFSGSRSGTDFTLTISSLQPEDVATYFCLQHNSWPWTFGGGTKLELK
B1 was tested, and the “% hCCR8-Ba/F3 - THP-1 complexes” value [1] was 2.2%.

B2: AB13 (antibody, V domains shown)
VH: EVQLVETGGGLVQPKGSLKLSCAASGFTFNAYAMNWVRQAPGKGLEWVARIRTKSNNYATYYADSVKDRFTISRDDSQTMLYLQMNNLKTEDTAMYYCVRDRATVTTGRAMDYWGQGTSVTVSS
VL: DIVMTQAAPSLPVTPGESVSISCRSSKSLLHSNGNTYLYWFLQRAGQSPQLLIYRMSNLASGVPDRFSGSGSGTAFTLRISRVEAEDVGVYYCMQHLEYPFTFGSGTKLEIK
notes: Hybridoma monoclonal; also called antibody 13; clone 13
B2 was tested, and the “% Blocking” value (human CCR8 [2]) was 30.8%, the MFI (human CCR8 [2]) was 598 and the “% Blocking” value (human CCR8 [3]) was -14.7%. The MFI (human CCR8 [3]) was 1130, the “% Blocking” value (human CCR8 [4]) was -33.5% and the “% Positive cells” value (human CCR8 [4]) was 2.19%. For the same binder, the “% Blocking” value (human CCR8 [5]) was 99.4%, the “% Positive cells” value (human CCR8 [5]) was 0.01% and the “% Blocking” value (human CCR8 [6]) was 21.8%. The MFI (human CCR8 [6]) was 800, the “% Blocking” value (human CCR8 [7]) was 30% and the MFI (human CCR8 [7]) was 601. The “% Blocking” value (human CCR8 [8]) was -7.92%, the “% Positive cells” value (human CCR8 [8]) was 2.18% and the “% Blocking” value (human CCR8 [9]) was 99.2%. The “% Positive cells” value (human CCR8 [9]) was 0.01%, the “% Blocking” value (human CCR8 [10]) was 95.5% and the “% Positive cells” value (human CCR8 [10]) was 0.09%. For the same binder, the “% Blocking” value (human CCR8 [11]) was 8.91%, the MFI (human CCR8 [11]) was 726 and the “% Blocking” value (human CCR8 [12]) was 98%. The “% Positive cells” value (human CCR8 [12]) was 0.04%, the “% Blocking” value (human CCR8 [13]) was 24.6% and the MFI (human CCR8 [13]) was 668. The “% Blocking” value (human CCR8 [14]) was 44.1%, the MFI (human CCR8 [14]) was 664 and the “% Blocking” value (human CCR8 [15]) was -17.2%. The MFI (human CCR8 [15]) was 1080, the “% Blocking” value (human CCR8 [16]) was 96% and the “% Positive cells” value (human CCR8 [16]) was 0.06%. The “% Blocking” value (human CCR8 [17]) was -18.5%, the “% Positive cells” value (human CCR8 [17]) was 2.11% and the “% Blocking” value (human CCR8 [18]) was 11.8%. For the same binder, the MFI (human CCR8 [18]) was 594, the “% Blocking” value (human CCR8 [19]) was 46.1% and the MFI (human CCR8 [19]) was 630. For the same binder, the “% Blocking” value (human CCR8 [20]) was 1.49%, the “% Positive cells” value (human CCR8 [20]) was 1.99% and the “% Blocking” value (human CCR8 [21]) was 8.18%. For the same binder, the MFI (human CCR8 [21]) was 814, the “% Blocking” value (human CCR8 [22]) was -36.8% and the “% Positive cells” value (human CCR8 [22]) was 2.12%. The “% Blocking” value (human CCR8 [23]) was -19.3%, the “% Positive cells” value (human CCR8 [23]) was 2.04% and the “% Blocking” value (human CCR8 [24]) was 34.7%. The “% Positive cells” value (human CCR8 [24]) was 1.15%, the “% Blocking” value (human CCR8 [25]) was 5.33% and the MFI (human CCR8 [25]) was 878. For the same binder, the “% Blocking” value (human CCR8 [26]) was -34.9% and the “% Positive cells” value (human CCR8 [26]) was 1.74%.

B3: AB6 (antibody, V domains shown)
VH: QVQLKESGPGLVQPSQTLSLTCTVSGFSLTSYHVSWVRQPPGKGLEWMGVIWTGGSTTYNSLLKSRLSISRDISKSQVFLKMNSLQTEDTATYYCARGGTVVKGGFAYWGQGTLVTVSS
VL: DIQMTQSPASLSASLEEIVTITCQASQDIGNRLSWYQQKPGKSPQLLIYGATSLADGVPSRFSGSRSGTQYSLKISRLQVEDIGIYYCLQAYSTPLTFGSGTKLEIK
In the case of B3, the “% hCCR8-Ba/F3 - THP-1 complexes” value [1] is reported as 1.88%.
